Measurements from PMC8038991, “R-catcher, a potent molecular tool to unveil the arginylome” (Cellular and Molecular Life Sciences: CMLS, 2021).

Experiments:
Assay in all cases: ITC; protein 0.05 mM, 4-mer peptide 1 mM as injectant, B buffer (50 mM Tris-HCl pH 7.5, 200 mM NaCl), 25 °C, Microcal Auto-ITC200; single site-binding model
[1] = molecular target: GST-ZZ_(122-175), wild type, bacterially expressed (human) (UniProt Q13501)
[2] = molecular target: purified N132D ZZ fragment p62 (122-175) of the ITC table (Fig. 3b) (human) (UniProt Q13501)
[3] = molecular target: purified wild type ZZ fragment p62 (122-175) of the ITC table (Fig. 3b) (human) (UniProt Q13501)

Binder | Kd [1] | Kd [2] | Kd [3]
RIFS [RIFS tetrapeptide (Nt-Arg)] | 4.4 µM | 2.85 µM | 6.9 µM
YIFS [YIFS tetrapeptide (Nt-Tyr)] | 16.1 µM | 107 µM | 20.7 µM
